Changes are numbered by the printed parent chain.
Legend:
Assay in all cases: ELISA; antibody coated, FLAG-tagged full-length Ang2 mutant, anti-FLAG-HRP detection
[1] = molecular target: T1, Ang2 mutant I434 (full-length Ang2) (human, UniProt O15123 19-496, limits assumed)
T1 sequence: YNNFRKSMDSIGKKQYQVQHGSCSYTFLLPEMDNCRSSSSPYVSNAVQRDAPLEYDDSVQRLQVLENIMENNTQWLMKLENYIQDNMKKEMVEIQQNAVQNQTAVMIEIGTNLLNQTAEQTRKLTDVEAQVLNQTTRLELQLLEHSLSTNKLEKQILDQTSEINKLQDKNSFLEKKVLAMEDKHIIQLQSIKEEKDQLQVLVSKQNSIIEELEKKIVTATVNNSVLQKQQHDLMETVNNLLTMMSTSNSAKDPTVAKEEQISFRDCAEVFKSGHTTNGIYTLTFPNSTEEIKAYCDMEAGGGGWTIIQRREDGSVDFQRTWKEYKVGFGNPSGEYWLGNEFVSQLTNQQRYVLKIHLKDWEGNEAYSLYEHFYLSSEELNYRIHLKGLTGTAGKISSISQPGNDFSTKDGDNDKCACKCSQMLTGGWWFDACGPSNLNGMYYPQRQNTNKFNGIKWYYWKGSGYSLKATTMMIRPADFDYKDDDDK
Method: (§1) A 96-well MaxiSorp™ flat-bottom plate (Nunc) was coated with 50 μl of each anti-Ang2 antibody (400 nM). After that, the plate was washed five times with 0.05% (v/v) Tween-20-containing PBS (PBST) and then blocked with 1% (v/v) BSA-containing PBS at a room temperature for 2 hours. S417, P419, N421, I434, D448, A449, P452, Y460, N467, K468, or F469 residue of Ang2 (SEQ ID NO: 27) was mutated (substituted) with alanine and tagged with FLAG (N-[…]-C; 1012 Da) and then 250 ng of them was each added to each well to the plate, which was allowed to react at a room temperature for 2 hours.
(§2) Thereafter, the plate was washed five times with 0.05% (v/v) Tween-20-containing PBS and then, an HRP-conjugated anti-FLAG antibody (SIGMA) diluted in 1% (v/v) BSA-containing PBS at 1:5,000 ratio (v/v) was added in the amount of 50 μl to each well to react at a room temperature for 1 hour, followed by washing five times with 0.1% (v/v) Tween-20-containing PBS.
(§3) Finally, 100 μl of TMB substrate (cell signal) was added to each well of the plate to induce color development for 3 minutes and then, the reaction was ceased by the addition of 100 μl of stop solution (Cell signaling) and OD450 values were measured on a plate reader (Molecular Devices). By comparing binding intensity to mutated Ang2 to binding intensity to non-mutated (native) Ang2, each epitope for the Ang2 antibodies was identified.

[2] = molecular target: T2, Ang2 mutant K468 (full-length Ang2) (human, UniProt O15123 19-496, limits assumed)
T2 sequence: T1 sequence with A416I, K450A
Method: as §1, §2, §3

[3] = molecular target: T3, Ang2 mutant F469 (full-length Ang2) (human, UniProt O15123 19-496, limits assumed)
T3 sequence: T1 sequence with A416I, F451A
Method: as §1, §2, §3

- Binding (%) (mutant Ang2 / native Ang2) [1]: 137%
- Binding (%) (mutant Ang2 / native Ang2) [2]: 20.5%
- Binding (%) (mutant Ang2 / native Ang2) [3]: 41.9%
B1: SAIT-ANG2-AB-m8D3 (antibody, V domains shown)
VH: EVQLQQSGPELVKPGDSVKMSCKASGYTFTDYYMKWVRQSHGKSLQWVGEINPKNGDTFYNQIFKGKATLTVDKSSSTAYMQLTSLTSEDSAVYYCTRENDYDVGFFDYWGQGTSVTVSS
VL: TIVMTQTPKFLLVSAGDRITITCKASQSVSNDVAWYQQKPGQSPKLLIYYASNRYPGVPDRFTGSGYGTDFTFTISTVQAEDLAVYFCQQDYTSPWTFGGGTELEIK
notes: also called hybridoma KCLRF-BP-00308

— patent US20150210761A1 (SAMSUNG ELECTRONICS, published 2015)
